# Patent US20220048967A1 (published 2022)
# Positions count from the first letter of the chain named. Numbered stars: 1 amine (or outer) side, 2 acyl side, 3 side chain; on linkers, the order of the positions; unused ones are H or OH. Square brackets hold non-standard residues; d marks the D form. Side chains are listed from the residue outwards. Ends that are not written are not given here. * marks the point of attachment. C20 diacid = O=C(O)CCCCCCCCCCCCCCCCCCC(=O)*; C18 diacid = O=C(O)CCCCCCCCCCCCCCCCC(=O)*; αMePhe(2-F) = C[C@](N)(Cc1ccccc1F)C(=O)O; γGlu = O=C(O)[C@H](CCC(=O)[*:2])N[*:1]; αMeF = C[C@](N)(Cc1ccccc1)C(=O)O; αMeP = C[C@@]1(C(=O)O)CCCN1; AEEA = NCCOCCOCC(=O)O; Aib = CC(C)(N)C(=O)O
# T1: human gastric inhibitory peptide receptor (GIPR) (human, UniProt P48546 22-466)
# T1 sequence (looked up): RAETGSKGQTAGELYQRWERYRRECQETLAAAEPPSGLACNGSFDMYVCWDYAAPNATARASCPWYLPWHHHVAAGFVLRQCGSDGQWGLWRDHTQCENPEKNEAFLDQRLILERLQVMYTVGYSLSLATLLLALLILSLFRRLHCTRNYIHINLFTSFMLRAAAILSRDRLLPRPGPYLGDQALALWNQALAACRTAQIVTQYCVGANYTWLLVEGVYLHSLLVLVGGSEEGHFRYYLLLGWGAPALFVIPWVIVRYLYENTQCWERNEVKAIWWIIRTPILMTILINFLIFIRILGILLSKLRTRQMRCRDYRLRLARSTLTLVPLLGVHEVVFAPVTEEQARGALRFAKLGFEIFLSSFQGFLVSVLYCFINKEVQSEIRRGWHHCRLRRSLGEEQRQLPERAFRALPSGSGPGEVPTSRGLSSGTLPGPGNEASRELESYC
# B1: Example 179 (peptide)
# peptide: Y[Aib]EGT[αMePhe(2-F)]TSDHSI[αMeF]LDEK([AEEA-AEEA-γGlu-C18 diacid])AQ[Aib]HFI[dE]YLIEGGPSSG-NH2
# modifications: N-terminus assumed
# SMILES: CC[C@H](C)[C@H](NC(=O)[C@H](CC(C)C)NC(=O)[C@H](Cc1ccc(O)cc1)NC(=O)[C@@H](CCC(=O)O)NC(=O)[C@@H](NC(=O)[C@H](Cc1ccccc1)NC(=O)[C@H](Cc1c[nH]cn1)NC(=O)C(C)(C)NC(=O)[C@H](CCC(N)=O)NC(=O)[C@H](C)NC(=O)[C@H](CCCCNC(=O)COCCOCCNC(=O)COCCOCCNC(=O)CC[C@H](NC(=O)CCCCCCCCCCCCCCCCC(=O)O)C(=O)O)NC(=O)[C@H](CCC(=O)O)NC(=O)[C@H](CC(=O)O)NC(=O)[C@H](CC(C)C)NC(=O)[C@](C)(Cc1ccccc1)NC(=O)[C@@H](NC(=O)[C@H](CO)NC(=O)[C@H](Cc1c[nH]cn1)NC(=O)[C@H](CC(=O)O)NC(=O)[C@H](CO)NC(=O)[C@@H](NC(=O)[C@](C)(Cc1ccccc1F)NC(=O)[C@@H](NC(=O)CNC(=O)[C@H](CCC(=O)O)NC(=O)C(C)(C)NC(=O)[C@@H](N)Cc1ccc(O)cc1)[C@@H](C)O)[C@@H](C)O)[C@@H](C)CC)[C@@H](C)CC)C(=O)N[C@@H](CCC(=O)O)C(=O)NCC(=O)NCC(=O)N1CCC[C@H]1C(=O)N[C@@H](CO)C(=O)N[C@@H](CO)C(=O)NCC(N)=O
# B2: Example 180 (peptide)
# peptide: Y[Aib]EGT[αMePhe(2-F)]TSDHSI[αMeF]LDEK([AEEA-AEEA-γGlu-C18 diacid])AQ[Aib]HFI[dE]YLIEGG-NH2
# modifications: N-terminus assumed
# SMILES: CC[C@H](C)[C@H](NC(=O)[C@H](CC(C)C)NC(=O)[C@H](Cc1ccc(O)cc1)NC(=O)[C@@H](CCC(=O)O)NC(=O)[C@@H](NC(=O)[C@H](Cc1ccccc1)NC(=O)[C@H](Cc1c[nH]cn1)NC(=O)C(C)(C)NC(=O)[C@H](CCC(N)=O)NC(=O)[C@H](C)NC(=O)[C@H](CCCCNC(=O)COCCOCCNC(=O)COCCOCCNC(=O)CC[C@H](NC(=O)CCCCCCCCCCCCCCCCC(=O)O)C(=O)O)NC(=O)[C@H](CCC(=O)O)NC(=O)[C@H](CC(=O)O)NC(=O)[C@H](CC(C)C)NC(=O)[C@](C)(Cc1ccccc1)NC(=O)[C@@H](NC(=O)[C@H](CO)NC(=O)[C@H](Cc1c[nH]cn1)NC(=O)[C@H](CC(=O)O)NC(=O)[C@H](CO)NC(=O)[C@@H](NC(=O)[C@](C)(Cc1ccccc1F)NC(=O)[C@@H](NC(=O)CNC(=O)[C@H](CCC(=O)O)NC(=O)C(C)(C)NC(=O)[C@@H](N)Cc1ccc(O)cc1)[C@@H](C)O)[C@@H](C)O)[C@@H](C)CC)[C@@H](C)CC)C(=O)N[C@@H](CCC(=O)O)C(=O)NCC(=O)NCC(N)=O
# B3: Example 193 (peptide)
# peptide: Y[αMeP]EGTFTSDYSILLDEK([AEEA-AEEA-γGlu-C20 diacid])AQQAFIEYLIEGGPSSGAPPPS-NH2
# modifications: N-terminus assumed
# SMILES: CC[C@H](C)[C@H](NC(=O)[C@H](CC(C)C)NC(=O)[C@H](Cc1ccc(O)cc1)NC(=O)[C@H](CCC(=O)O)NC(=O)[C@@H](NC(=O)[C@H](Cc1ccccc1)NC(=O)[C@H](C)NC(=O)[C@H](CCC(N)=O)NC(=O)[C@H](CCC(N)=O)NC(=O)[C@H](C)NC(=O)[C@H](CCCCNC(=O)COCCOCCNC(=O)COCCOCCNC(=O)CC[C@H](NC(=O)CCCCCCCCCCCCCCCCCCC(=O)O)C(=O)O)NC(=O)[C@H](CCC(=O)O)NC(=O)[C@H](CC(=O)O)NC(=O)[C@H](CC(C)C)NC(=O)[C@H](CC(C)C)NC(=O)[C@@H](NC(=O)[C@H](CO)NC(=O)[C@H](Cc1ccc(O)cc1)NC(=O)[C@H](CC(=O)O)NC(=O)[C@H](CO)NC(=O)[C@@H](NC(=O)[C@H](Cc1ccccc1)NC(=O)[C@@H](NC(=O)CNC(=O)[C@H](CCC(=O)O)NC(=O)[C@]1(C)CCCN1C(=O)[C@@H](N)Cc1ccc(O)cc1)[C@@H](C)O)[C@@H](C)O)[C@@H](C)CC)[C@@H](C)CC)C(=O)N[C@@H](CCC(=O)O)C(=O)NCC(=O)NCC(=O)N1CCC[C@H]1C(=O)N[C@@H](CO)C(=O)N[C@@H](CO)C(=O)NCC(=O)N[C@@H](C)C(=O)N1CCC[C@H]1C(=O)N1CCC[C@H]1C(=O)N1CCC[C@H]1C(=O)N[C@@H](CO)C(N)=O
# B4: Example 194 (peptide)
# peptide: Y[αMeP]EGTFTSDYSILLDEK([AEEA-AEEA-γGlu-C20 diacid])AQHAFIEYLIEGGPSSGAPPPS-NH2
# modifications: N-terminus assumed
# SMILES: CC[C@H](C)[C@H](NC(=O)[C@H](CC(C)C)NC(=O)[C@H](Cc1ccc(O)cc1)NC(=O)[C@H](CCC(=O)O)NC(=O)[C@@H](NC(=O)[C@H](Cc1ccccc1)NC(=O)[C@H](C)NC(=O)[C@H](Cc1c[nH]cn1)NC(=O)[C@H](CCC(N)=O)NC(=O)[C@H](C)NC(=O)[C@H](CCCCNC(=O)COCCOCCNC(=O)COCCOCCNC(=O)CC[C@H](NC(=O)CCCCCCCCCCCCCCCCCCC(=O)O)C(=O)O)NC(=O)[C@H](CCC(=O)O)NC(=O)[C@H](CC(=O)O)NC(=O)[C@H](CC(C)C)NC(=O)[C@H](CC(C)C)NC(=O)[C@@H](NC(=O)[C@H](CO)NC(=O)[C@H](Cc1ccc(O)cc1)NC(=O)[C@H](CC(=O)O)NC(=O)[C@H](CO)NC(=O)[C@@H](NC(=O)[C@H](Cc1ccccc1)NC(=O)[C@@H](NC(=O)CNC(=O)[C@H](CCC(=O)O)NC(=O)[C@]1(C)CCCN1C(=O)[C@@H](N)Cc1ccc(O)cc1)[C@@H](C)O)[C@@H](C)O)[C@@H](C)CC)[C@@H](C)CC)C(=O)N[C@@H](CCC(=O)O)C(=O)NCC(=O)NCC(=O)N1CCC[C@H]1C(=O)N[C@@H](CO)C(=O)N[C@@H](CO)C(=O)NCC(=O)N[C@@H](C)C(=O)N1CCC[C@H]1C(=O)N1CCC[C@H]1C(=O)N1CCC[C@H]1C(=O)N[C@@H](CO)C(N)=O
# B5: Example 181 (peptide)
# peptide: YXEGTXTSDXSIXLDEKAQXEFIXYLIEGGPSSGAPPPS
# modifications: Y-Aib-EGT-αMeF(2F)-TSD-3Pal-SI-αMeF-LDEK((2-[2-(2-Amino-ethoxy)-ethoxy]-acetyl)2-(γ-Glu)-CO-(CH2)18-CO2H)AQ-Aib-EFI-(D-Glu)-YLIEGGPSSGAPPPS-NH2
# B6: Example 182 (peptide)
# peptide: B5 peptide
# modifications: Y-Aib-EGT-αMeF(2F)-TSD-4Pal-SI-αMeF-LDEK((2-[2-(2-Amino-ethoxy)-ethoxy]-acetyl)2-(γ-Glu)-CO-(CH2)18-CO2H)AQ-Aib-EFI-(D-Glu)-YLIEGGPSSGAPPPS-NH2
# B7: Example 185 (peptide)
# peptide: B5 peptide
# modifications: Y-Aib-EGT-αMeF(2F)-TSD-(D-His)-SI-αMeF-LDEK((2-[2-(2-Amino-ethoxy)-ethoxy]-acetyl)2-(γ-Glu)-CO-(CH2)18-CO2H)AQ-Aib-EFI-(D-Glu)-YLIEGGPSSGAPPPS-NH2
# B8: Example 183 (peptide)
# peptide: B5 peptide with X10L
# modifications: Y-Aib-EGT-αMeF(2F)-TSDLSI-αMeF-LDEK((2-[2-(2-Amino-ethoxy)-ethoxy]-acetyl)2-(γ-Glu)-CO-(CH2)18-CO2H)AQ-Aib-EFI-(D-Glu)-YLIEGGPSSGAPPPS-NH2
# B9: Example 187 (peptide)
# peptide: B5 peptide with X10Q
# modifications: Y-Aib-EGT-αMeF(2F)-TSDQSI-αMeF-LDEK((2-[2-(2-Amino-ethoxy)-ethoxy]-acetyl)2-(γ-Glu)-CO-(CH2)18-CO2H)AQ-Aib-EFI-(D-Glu)-YLIEGGPSSGAPPPS-NH2
# B10: Example 191 (peptide)
# peptide: B5 peptide with X10V
# modifications: Y-Aib-EGT-αMeF(2F)-TSDVSI-αMeF-LDEK((2-[2-(2-Amino-ethoxy)-ethoxy]-acetyl)2-(γ-Glu)-CO-(CH2)18-CO2H)AQ-Aib-EFI-(D-Glu)-YLIEGGPSSGAPPPS-NH2
# B11: Example 189 (peptide)
# peptide: B5 peptide
# modifications: Y-Aib-EGT-αMeF(2F)-TSD-4Pal-SI-αMeF-LDEK((2-[2-(2-Amino-ethoxy)-ethoxy]-acetyl)2-(γ-Glu)-CO-(CH2)18-CO2H)AQ-Aib-EFI-Aib-YLIEGGPSSGAPPPS-NH2
# B12: Example 184 (peptide)
# peptide: B5 peptide
# modifications: Y-Aib-EGT-αMeF(2F)-TSD-(D-Tyr)-SI-αMeF-LDEK((2-[2-(2-Amino-ethoxy)-ethoxy]-acetyl)2-(γ-Glu)-CO-(CH2)18-CO2H)AQ-Aib-EFI-(D-Glu)-YLIEGGPSSGAPPPS-NH2
# B13: Example 190 (peptide)
# peptide: B5 peptide with Y1H
# modifications: H-Aib-EGT-αMeF(2F)-TSD-3Pal-SI-αMeF-LDEK((2-[2-(2-Amino-ethoxy)-ethoxy]-acetyl)2-(γ-Glu)-CO-(CH2)18-CO2H)AQ-Aib-EFI-(D-Glu)-YLIEGGPSSGAPPPS-NH2
# B14: Example 192 (peptide)
# peptide: B5 peptide with X10A
# modifications: Y-Aib-EGT-αMeF(2F)-TSDASI-αMeF-LDEK((2-[2-(2-Amino-ethoxy)-ethoxy]-acetyl)2-(γ-Glu)-CO-(CH2)18-CO2H)AQ-Aib-EFI-(D-Glu)-YLIEGGPSSGAPPPS-NH2
# B15: Example 188 (peptide)
# peptide: B5 peptide
# modifications: Y-Aib-EGT-αMeF(2F)-TSD-3Pal-SI-αMeF-LDEK((2-[2-(2-Amino-ethoxy)-ethoxy]-acetyl)2-(γ-Glu)-CO-(CH2)18-CO2H)AQ-Aib-EFI-Aib-YLIEGGPSSGAPPPS-NH2
# Biological target: human GLP-1 receptor (GLP-1R) (human, UniProt P43220 24-463)
# Assay: cell-based or functional assay
Binder,hGLP1R cAMP EC50 ratio,hGLP1R cAMP Rel EC50
B1,0.0169,2.7 nM
B2,0.0212,2.16 nM
B3,0.359,0.162 nM
B4,0.205,0.284 nM
B5,0.718,0.0592 nM
B6,0.873,0.0463 nM
B7,0.00739,7.16 nM
B8,0.843,0.0551 nM
B9,0.702,0.0577 nM
B10,1.6,0.0356 nM
B11,0.668,0.0608 nM
B12,0.135,0.392 nM
B13,2.2,0.0241 nM
B14,1.73,0.0289 nM
B15,0.408,0.13 nM

# Biological target: T1, human gastric inhibitory peptide …
# Assay: cell-based or functional assay
Binder,hGIPR cAMP EC50 ratio,hGIPR cAMP Rel EC50
B1,0.0575,1.83 nM
B2,0.133,0.79 nM
B3,0.538,0.336 nM
B4,0.427,0.423 nM
B5,4.1,0.0459 nM
B6,4.37,0.0442 nM
B7,0.185,0.632 nM
B8,3.1,0.0615 nM
B9,4.61,0.0371 nM
B10,2.53,0.0645 nM
B11,2.41,0.0775 nM
B12,2.45,0.0477 nM
B13,0.158,0.738 nM
B14,2.83,0.0615 nM
B15,0.969,0.121 nM
